A word on the Vmax: it is the rate approached at saturating substrate.

Substrate in data set [1]: O=C(O)C[C@H](C(=O)O)[C@@H](O)C(=O)O
Description: NADH production, Hill fit. It is filed as biochemical, Homo sapiens. The following applies: no activators, 3.2 mM NAD, 2 mM MgCl2, 33 mM Tris-acetate pH 7.4. The source says:
NADH production, Hill fit on αβ heterodimer of HsIDH3 (mutant form αMβ)

Substrate in data set [2]: O=C(O)C[C@H](C(=O)O)[C@@H](O)C(=O)O
Description: NADH production, Hill fit. The following applies: no activators, 3.2 mM NAD, 2 mM MgCl2, 33 mM Tris-acetate pH 7.4. The data set is classed as biochemical, Homo sapiens. The source says:
NADH production, Hill fit on αγ heterodimer of HsIDH3 (mutant form αMγ)
This is another data set of the same source.

B1: αβ heterodimer of HsIDH3 (mutant form αMβ) (Homo sapiens; P50213:Q166A) (protein)
chain 1: TGGVQTVTLIPGDGIGPEISAAVMKIFDAAKAPIQWEERNVTAIQGPGGKWMIPSEAKESMDKNKMGLKGPLKTPIAAGHPSMNLLLRKTFDLYANVRPCVSIEGYKTPYTDVNIVTIRENTEGEYSGIEHVIVDGVVASIKLITEGASKRIAEFAFEYARNNHRSNVTAVHKANIMRMSDGLFLQKCREVAESCKDIKFNEMYLDTVCLNMVQDPSQFDVLVMPNLYGDILSDLCAGLIGGLGVTPSGNIGANGVAIFESVHGTAPDIAGKDMANPTALLLSAVMMLRHMGLFDHAARIEAACFATIKDGKSLTKDLGGNAKCSDFTEEICRRVKDLD
chain 2: not shown
notes: coexpressed alpha and beta-TEV-His6 (pQlinkN), E. coli BL21(DE3) Codon-Plus, His6 tag cleaved with TEV; 1:1 heterodimer, mutant is heterotetramer (αMβ)2 of 131-149 kDa
Take B1: in data set [1], the K0.5 worked out at 0.17 ± 0.02 mM and the Vmax came out at 18 µmol/min/mg.

B2: αγ heterodimer of HsIDH3 (mutant form αMγ) (Homo sapiens; P50213:Q166A) (protein)
chain 1: B1 chain 1
chain 2: FSEQTIPPSAKYGGRHTVTMIPGDGIGPELMLHVKSVFRHACVPVDFEEVHVSSNADEEDIRNAIMAIRRNRVALKGNIETNHNLPPSHKSRNNILRTSLDLYANVIHCKSLPGVVTRHKDIDILIVRENTEGEYSSLEHESVAGVVESLKIITKAKSLRIAEYAFKLAQESGRKKVTAVHKANIMKLGDGLFLQCCREVAARYPQITFENMIVDNTTMQLVSRPQQFDVMVMPNLYGNIVNNVCAGLVGGPGLVAGANYGHVYAVFETATRNTGKSIANKNIANPTATLLASCMMLDHLKLHSYATSIRKAVLASMDNENMHTPDIGGQGTTSEAIQDVIRHIRVINGRAVEA
notes: coexpressed alpha and gamma-TEV-His6 (pQlinkN), E. coli BL21(DE3) Codon-Plus, His6 tag cleaved with TEV; 1:1 heterodimer, mutant is heterotetramer (αMγ)2 of 131-149 kDa
For the protein B2, in data set [2], the K0.5 worked out at 0.26 ± 0.11 mM and the maximum rate (Vmax) was 25.5 µmol/min/mg.

Source of the values: article PMC9731866, “Structures of a constitutively active mutant of human IDH3 reveal new insights into the mechanisms of allosteric activation and the catalytic reaction” (The Journal of Biological Chemistry, 2022).
